One block for each binder: values may come before it.
Columns and labels:
[1] = molecular target: T1, APC2724-AA; experiment: two-hybrid library CCmax; conditions: mean of both orientations;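 note: natural log of median RNA to DNA barcode read ratio; higher means stronger binding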
T1 chain: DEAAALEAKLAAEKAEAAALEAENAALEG

[2] = molecular target: T2, APC5531-AA; experiment: two-hybrid library CCmax; conditions: mean of both orientations;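 note: natural log of median RNA to DNA barcode read ratio; higher means stronger binding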
T2 chain: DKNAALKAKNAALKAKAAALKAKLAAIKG

[3] = molecular target: T3, APC6088-AA; experiment: two-hybrid library CCmax; conditions: mean of both orientations;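 note: natural log of median RNA to DNA barcode read ratio; higher means stronger binding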
T3 chain: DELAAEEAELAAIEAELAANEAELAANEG

[4] = molecular target: T4, APC9291-AA; experiment: two-hybrid library CCmax; conditions: mean of both orientations;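 note: natural log of median RNA to DNA barcode read ratio; higher means stronger binding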
T4 chain: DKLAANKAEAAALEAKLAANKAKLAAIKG

[5] = molecular target: T5, APC2556-AA; experiment: two-hybrid library CCmax; conditions: mean of both orientations;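 note: natural log of median RNA to DNA barcode read ratio; higher means stronger binding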
T5 chain: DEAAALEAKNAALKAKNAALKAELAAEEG

[6] = molecular target: T6, APC3323-AA; experiment: two-hybrid library CCmax; conditions: mean of both orientations;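 note: natural log of median RNA to DNA barcode read ratio; higher means stronger binding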
T6 chain: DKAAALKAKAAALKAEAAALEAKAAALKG

[7] = molecular target: T7, APC3265-AA; experiment: two-hybrid library CCmax; conditions: mean of both orientations
T7 chain: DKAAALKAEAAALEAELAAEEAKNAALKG

[8] = molecular target: T8, APC2375-AA; experiment: two-hybrid library CCmax
T8 chain: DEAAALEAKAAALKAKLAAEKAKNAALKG

[9] = molecular target: T9, APC3881-AA; experiment: two-hybrid library CCmax; conditions: mean of both orientations
T9 chain: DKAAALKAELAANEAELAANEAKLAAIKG

[10] = molecular target: T10, APC9141-AA; experiment: two-hybrid library CCmax; conditions: mean of both orientations
T10 chain: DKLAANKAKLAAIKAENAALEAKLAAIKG

[11] = molecular target: T11, APC4100-AA; experiment: two-hybrid library CCmax; conditions: mean of both orientations
T11 chain: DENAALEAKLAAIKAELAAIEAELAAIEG

[12] = molecular target: T12, APC2474-AA; experiment: two-hybrid library CCmax; conditions: mean of both orientations
T12 chain: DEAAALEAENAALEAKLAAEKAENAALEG

[13] = molecular target: T13, APC4336-AA; experiment: two-hybrid library CCmax; conditions: mean of both orientations
T13 chain: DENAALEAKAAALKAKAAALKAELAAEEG

[14] = molecular target: T14, APC2981-AA; experiment: two-hybrid library CCmax; conditions: mean of both orientations
T14 chain: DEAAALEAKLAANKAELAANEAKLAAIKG

[15] = molecular target: T15, APC9806-AA; experiment: two-hybrid library CCmax; conditions: mean of both orientations
T15 chain: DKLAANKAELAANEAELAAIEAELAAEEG

[16] = molecular target: T16, APC7524-AA; experiment: two-hybrid library CCmax; conditions: mean of both orientations
T16 chain: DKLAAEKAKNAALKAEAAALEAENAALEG

[17] = molecular target: T17, APC3354-AA; experiment: two-hybrid library CCmax; conditions: mean of both orientations
T17 chain: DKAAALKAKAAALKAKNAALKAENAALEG

[18] = molecular target: T18, APC9182-AA; experiment: two-hybrid library CCmax; conditions: mean of both orientations
T18 chain: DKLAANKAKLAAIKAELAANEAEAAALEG

[19] = molecular target: T19, APC2543-AA; experiment: two-hybrid library CCmax; conditions: mean of both orientations
T19 chain: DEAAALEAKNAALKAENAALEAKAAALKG

[20] = molecular target: T20, APC5009-AA; experiment: two-hybrid library CCmax; conditions: mean of both orientations
T20 chain: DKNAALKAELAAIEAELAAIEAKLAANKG

[21] = molecular target: T21, APC8401-AA; experiment: two-hybrid library CCmax; conditions: mean of both orientations
T21 chain: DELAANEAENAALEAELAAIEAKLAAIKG

[22] = molecular target: T22, APC2811-AA; experiment: two-hybrid library CCmax; conditions: mean of both orientations
T22 chain: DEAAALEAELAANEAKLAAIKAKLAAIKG

[23] = molecular target: T23, APC542-AA; experiment: two-hybrid library CCmax; conditions: mean of both orientations
T23 chain: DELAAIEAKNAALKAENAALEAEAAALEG

[24] = molecular target: T24, APC8516-AA; experiment: two-hybrid library CCmax; conditions: mean of both orientations
T24 chain: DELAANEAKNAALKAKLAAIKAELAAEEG

[25] = molecular target: T25, 4H754-bN; experiment: two-hybrid library CCNG1
T25 chain: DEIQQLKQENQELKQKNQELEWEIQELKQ

[26] = molecular target: T26, 4H2667-bN; experiment: two-hybrid library CCNG1
T26 chain: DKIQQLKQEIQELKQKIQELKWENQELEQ

[27] = molecular target: T27, 4H3354-bN; experiment: two-hybrid library CCNG1
T27 chain: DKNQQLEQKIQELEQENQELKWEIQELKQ

[28] = molecular target: T28, 4H72-bN; experiment: two-hybrid library CCNG1
T28 chain: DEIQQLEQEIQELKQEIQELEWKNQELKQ

[29] = molecular target: T29, 4H908-bN; experiment: two-hybrid library CCNG1
T29 chain: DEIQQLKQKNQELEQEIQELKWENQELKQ

[30] = molecular target: T30, 4H607-bN; experiment: two-hybrid library CCNG1
T30 chain: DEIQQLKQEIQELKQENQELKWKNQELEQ

[31] = molecular target: T31, 4H2729-bN; experiment: two-hybrid library CCNG1
T31 chain: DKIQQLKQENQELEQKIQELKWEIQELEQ

[32] = molecular target: T32, 4H953-bN; experiment: two-hybrid library CCNG1
T32 chain: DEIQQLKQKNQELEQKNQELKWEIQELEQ

[33] = molecular target: T33, 4H3782-bN; experiment: two-hybrid library CCNG1
T33 chain: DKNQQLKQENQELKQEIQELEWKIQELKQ

[34] = molecular target: T34, 4H797-bN; experiment: two-hybrid library CCNG1
T34 chain: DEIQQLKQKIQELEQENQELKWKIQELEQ

[35] = molecular target: T35, 4H4001-bN; experiment: two-hybrid library CCNG1
T35 chain: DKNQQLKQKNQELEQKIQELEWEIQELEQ

[36] = molecular target: T36, 4H883-bN; experiment: two-hybrid library CCNG1
T36 chain: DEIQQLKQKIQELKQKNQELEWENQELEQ

[37] = molecular target: T37, 4H717-bN; experiment: two-hybrid library CCNG1
T37 chain: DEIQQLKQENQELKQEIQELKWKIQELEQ

[38] = molecular target: T38, 4H918-bN; experiment: two-hybrid library CCNG1
T38 chain: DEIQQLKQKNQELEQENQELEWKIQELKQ

[39] = molecular target: T39, 4H967-bN; experiment: two-hybrid library CCNG1
T39 chain: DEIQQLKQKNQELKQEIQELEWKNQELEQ

[40] = molecular target: T40, 4H3628-bA; experiment: two-hybrid library CCNG1
T40 chain: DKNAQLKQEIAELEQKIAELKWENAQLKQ

[41] = molecular target: T41, 4H331-bN; experiment: two-hybrid library CCNG1
T41 chain: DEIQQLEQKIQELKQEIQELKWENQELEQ

[42] = molecular target: T42, 4H3855-bN; experiment: two-hybrid library CCNG1
T42 chain: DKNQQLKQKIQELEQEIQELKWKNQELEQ

[43] = molecular target: T43, 4H3427-bN; experiment: two-hybrid library CCNG1
T43 chain: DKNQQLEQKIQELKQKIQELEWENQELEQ

[44] = molecular target: T44, 4H568-bN; experiment: two-hybrid library CCNG1
T44 chain: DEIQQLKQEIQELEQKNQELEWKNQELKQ

[45] = molecular target: T45, 4H338-bN; experiment: two-hybrid library CCNG1
T45 chain: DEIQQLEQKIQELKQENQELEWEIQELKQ

[46] = molecular target: T46, 4H687-bN; experiment: two-hybrid library CCNG1
T46 chain: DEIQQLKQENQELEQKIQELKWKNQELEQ

[47] = molecular target: T47, 4H454-bN; experiment: two-hybrid library CCNG1
T47 chain: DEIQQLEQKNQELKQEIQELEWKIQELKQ

[48] = molecular target: T48, 4H3112-bN; experiment: two-hybrid library CCNG1
T48 chain: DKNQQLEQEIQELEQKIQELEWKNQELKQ

[49] = molecular target: T49, 4H3185-bN; experiment: two-hybrid library CCNG1
T49 chain: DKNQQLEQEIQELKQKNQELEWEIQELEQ

[50] = molecular target: T50, 4H2618-bN; experiment: two-hybrid library CCNG1
T50 chain: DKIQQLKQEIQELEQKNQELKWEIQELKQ

[51] = molecular target: T51, 4H462-bA; experiment: two-hybrid library CCNG1
T51 chain: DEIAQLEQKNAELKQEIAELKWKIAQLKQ

[52] = molecular target: T52, 4H953-bA; experiment: two-hybrid library CCNG1
T52 chain: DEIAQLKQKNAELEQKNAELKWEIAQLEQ

[53] = molecular target: T53, 4H4001-bA; experiment: two-hybrid library CCNG1
T53 chain: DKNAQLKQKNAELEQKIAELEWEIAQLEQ

[54] = molecular target: T54, 4H883-bA; experiment: two-hybrid library CCNG1
T54 chain: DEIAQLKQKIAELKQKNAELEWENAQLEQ

[55] = molecular target: T55, 4H3782-bA; experiment: two-hybrid library CCNG1
T55 chain: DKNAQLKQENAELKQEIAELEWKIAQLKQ

[56] = molecular target: T56, 4H3189-bA; experiment: two-hybrid library CCNG1
T56 chain: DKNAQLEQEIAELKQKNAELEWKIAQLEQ

[57] = molecular target: T57, 4H687-bA; experiment: two-hybrid library CCNG1
T57 chain: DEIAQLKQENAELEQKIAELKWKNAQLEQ

[58] = molecular target: T58, 4H2610-bA; experiment: two-hybrid library CCNG1
T58 chain: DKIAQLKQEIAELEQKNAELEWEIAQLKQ

[59] = molecular target: T59, 4H3606-bA; experiment: two-hybrid library CCNG1
T59 chain: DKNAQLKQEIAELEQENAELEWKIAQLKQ

[60] = molecular target: T60, 4H568-bA; experiment: two-hybrid library CCNG1
T60 chain: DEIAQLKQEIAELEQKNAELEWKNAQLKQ

[61] = molecular target: T61, 4H2697-bA; experiment: two-hybrid library CCNG1
T61 chain: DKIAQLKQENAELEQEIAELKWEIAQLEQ

[62] = molecular target: T62, 4H3843-bA; experiment: two-hybrid library CCNG1
T62 chain: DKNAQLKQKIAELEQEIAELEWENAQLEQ

[63] = molecular target: T63, 4H2667-bA; experiment: two-hybrid library CCNG1
T63 chain: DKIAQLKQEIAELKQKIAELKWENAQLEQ

[64] = molecular target: T64, 4H607-bA; experiment: two-hybrid library CCNG1
T64 chain: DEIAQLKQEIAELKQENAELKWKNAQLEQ

[65] = molecular target: T65, 4H797-bA; experiment: two-hybrid library CCNG1
T65 chain: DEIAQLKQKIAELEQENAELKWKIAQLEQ

[66] = molecular target: T66, 4H72-bA; experiment: two-hybrid library CCNG1
T66 chain: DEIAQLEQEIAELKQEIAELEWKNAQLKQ

[67] = molecular target: T67, 4H967-bA; experiment: two-hybrid library CCNG1
T67 chain: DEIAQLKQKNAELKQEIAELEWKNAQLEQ

[68] = molecular target: T68, 4H918-bA; experiment: two-hybrid library CCNG1
T68 chain: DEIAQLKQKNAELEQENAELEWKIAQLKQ

[69] = molecular target: T69, 4H331-bA; experiment: two-hybrid library CCNG1
T69 chain: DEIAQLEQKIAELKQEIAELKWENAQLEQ

[70] = molecular target: T70, 4H370-bA; experiment: two-hybrid library CCNG1
T70 chain: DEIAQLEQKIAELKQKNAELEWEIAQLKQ

interaction score [1]: -1.62
interaction score [2]: -1.77
interaction score [3]: -1.06
interaction score [4]: -1.88
interaction score [5]: -1.42
interaction score [6]: -1.82
interaction score [7]: -1.44
interaction score [8]: -1.68
interaction score [9]: -1.74
interaction score [10]: -1.6
interaction score [11]: -1.47
interaction score [12]: -1.59
interaction score [13]: -1.65
interaction score [14]: -1.45
interaction score [15]: -1.72
interaction score [16]: -1.49
interaction score [17]: -1.67
interaction score [18]: -1.83
interaction score [19]: -1.57
interaction score [20]: -0.913
interaction score [21]: -0.731
interaction score [22]: -1.74
interaction score [23]: -1.83
interaction score [24]: -1.58
Binder: DEAAALEAKAAALKAKLAAEKAKNAALKG [APC2375-AA]

interaction score [25]: -0.67
interaction score [26]: -0.229
interaction score [27]: -0.374
interaction score [28]: -0.128
interaction score [29]: -1.09
interaction score [30]: -0.0391
interaction score [31]: 1.51
interaction score [32]: -1.12
interaction score [33]: -0.594
interaction score [34]: -0.249
interaction score [35]: -0.538
interaction score [36]: 0.595
interaction score [37]: -0.442
interaction score [38]: 0.558
interaction score [39]: -1.39
interaction score [40]: 0.00803
interaction score [41]: -0.0801
interaction score [42]: -0.781
interaction score [43]: 0.0822
interaction score [44]: -1.88
interaction score [45]: 0.959
interaction score [46]: -0.758
interaction score [47]: 0.067
interaction score [48]: -0.924
interaction score [49]: 0.0545
interaction score [50]: 0.45
Binder: DKIQQLKQEIQELEQKNQELKWEIQELKQ [4H2618-bN]

interaction score [51]: 1.76
interaction score [52]: 0.322
interaction score [53]: 0.0746
interaction score [54]: 0.538
interaction score [55]: -0.515
interaction score [56]: -0.366
interaction score [57]: -0.571
interaction score [58]: -0.2
interaction score [59]: 0.322
interaction score [60]: -0.602
interaction score [61]: 0.713
interaction score [62]: 0.444
interaction score [63]: 0.718
interaction score [64]: -1.15
interaction score [65]: -0.486
interaction score [66]: -0.563
interaction score [67]: -1.02
interaction score [68]: 1.13
interaction score [69]: -0.211
interaction score [70]: -1.17
Binder: DKIAQLKQEIAELEQKNAELEWEIAQLKQ [4H2610-bA]
